Measured values from the DeepSol protein solubility set.

Assay: soluble on expression in E. coli; label from the status in PepcDB or PDB records

Sequence	soluble on expression in E. coli
MTSIQQRAELQRRIWQIANDVRGTVDGWDFKQYVLGALFYRFISENFAAHMEAGDDGIRYAELPDSVITPELKDDAIKTKGYFIYPSQLFANVVARANTNDSLNTDLAAIFTAIESSANGYPSEQDIKGLFADFDTTSNRLGNTVKDKNQRLAAVLKGVAELDFGPFDDAHIDLFGDAYEFLISNYAANAGKSGGEFFTPQHVSRLIARLALHGQKSVNKIYDPACGSGSLLLQAKKPFDERLIEDGFFGQESNHTTYNLARMNMFLHNINYDKFNIQLGNTLLEPHFADEKPFDAIVSNPPYSVKWIGSDDPTLINDERFAPAGVLAPKSKADFAFVLHALHYLSAKGRAAIVCFPGIFYRGGAEAKIRQYLVDNNYVETVIALAPNLFFGTTIAVNILVLSKHKPDTTTQFIDASALFKKETNNNVLLDEHIEQIMAVFASKEEVPHVAQSVPLERIAANNYNLSVSSYVEARDTREVVDIAQLNAELKTTVARIDELRKQIDAIVAEIEGEEDEA	soluble
MTSLVVPGLDTLRQWLDDLGMSFFECDNCQALHLPHMQNFDGVFDAKIDLIDNTILFSAMAEVRPSAVLPLAADLSAINASSLTVKAFLDMQDDNLPKLVVCQSLSVMQGVTYEQFAWFVRQSEEQISMVILEANAHQLLLPTDDEGQNNVTENYFLH	soluble
MTSNQLAQYIDHTALTAEKNEQDISTLCNEAIEHGFYSVCINSAYIPLAKEKLAGSNVKICTVVGFPLGANLTSVKAFETQESIKAGANEIDMVINVGWIKSQKWDEVKQDIQAVFNACNGTPLKVILETCLLTKDEIVKACEICKEIGVAFVKTSTGFNKGGATVEDVALMKNTVGNIGVKASGGVRDTETALAMIKAGATRIGASAGIAIISGTQDTQSTYLEHHHHHH	soluble
MTSSAMDNNEPKVLEMVYDATILPECSGMDPSIIDCINRHINMRIQRSYSSNIIAILDRFLMMNKDELNNTQCHIIKEFMTYEQMAIDYYGGYVNAILYQIRKRPNQHHTIDLFKRIKRTRYDTFKVNPVEFVKKVIGFVSILNKYKPIYSYVLYENVLYDELKCFIDYVETKYFQN	not soluble
MTSSDQSPSHDVFVYGSFQEPAVVNLILECAPVMVSAQLHGYHLYRLKGRLHPCISPSDNGLINGKILTGLTDSQLESLDMIEGTEYVRKTVEVVLTDTLEKKQVETIVWANKDDPNMYGEWDFEEWKRLHMEKFIEAATKFMEWKKNPNGRSREEFEKFVQDDSSPASA	soluble
MTSVNKKRNARKNQEPTSNMTIETEDGTQADRPKKRPAKKRSKVVRRAAQYGDVNEPILRDFVKATIQTGVKQLSTEFLNLKMETQPCNKPKTGHEGHPEKNRYKDVYCIDDTRVVLKWPEDSPSDYIHANWVKINGANKFICTQGPTEKTVDDFYRLIWQEKAPCVVMLCNIMECGKKKCEQYWPETADGQMILMDGKLTVKIAEPAKEVEQNILLMKITVIDDKGTSHNFEHWQWKAWPDRGVPELPMALKTASPIVVHCSAGIGRTGSIVGLEIALVKFCAGEKVVLKDIVKEIRNQRHGSVQTDAQYLFMHRVLLALAENRKITSPELSAFVAEYDKVIATKNG	not soluble
MTTETRSLYSQLPAIDRLLRDSSFLSLRDTYGHTRVVELLRQMLDEAREVIRGSQTLPAWCENWAQEVDARLTKEAQSALRPVINLTGTVLHTNLGRALQAEAAVEAVAQAMRSPVTLEYDLDDAGRGHRDRALAQLLCRITGAEDACIVNNNAAAVLLMLAATASGKEVVVSRGELVEIGGAFRIPDVMRQAGCTLHEVGTTNRTHANDYRQAVNENTALLMKVHTSNYSIQGFTKAIDEAELVALGKELDVPVVTDLGSGSLVDLSQYGLPKEPMPQELIAAGVSLVSFSGDKLLGGPQAGIIVGKKEMIARLQSHPLKRALRADKMTLAALEATLRLYLHPEALSEKLPTLRLLTRSAEVIQIQAQRLQAPLVAHYGAEFAVQVMPCLSQIGSGSLPVDRLPSAALTFTPHDGRGSHLESLAARWRELPVPVIGRIYDGRLWLDLRCLEDEQRFLEMLLK	not soluble
MTTHQFEHPLNEKTRIYLRVEALLNQMERASTFSDGIQHQLFFRSLFDMLEIFEQIQLKSELAKDMEKQRLTYRSWLHVEGVDQEMLNSLLTEVDEVHRDLMSAERFGQSLKEDRFLSAIRQRFNLPGGSCCFDLPALHYWLHLPLDRKMRDAQQWMQTVTPLSNALKLWLKLTRETGHYRSRMASNGFYQSDAEDANILRLAIPLEYGVYPMISGHKNRFAIKFIDFHSGQACTQDIAFDLAVCC	not soluble
